Side chains are listed from the residue outwards. Ends that are not written are not given here. amino‑PEG‑coated CdSeTe/ZnS quantum dot = amino-PEG-coated CdSeTe/ZnS quantum dot; sulfo‑SMCC = sulfosuccinimidyl-4-(N-maleimidomethyl)cyclohexane-1-carboxylate
Target: T1, recombinant human VCAM-1 (human, UniProt P19320 25-698)
T1 construct: vascular cell adhesion molecule 1 (VCAM-1), human, recombinant; A bought recombinant VCAM-1 is likely the soluble extracellular part, perhaps with a tag or Fc; also called recombinant VCAM-1; vascular cell adhesion molecule 1; source: bought: R&D Systems
T1 sequence (looked up): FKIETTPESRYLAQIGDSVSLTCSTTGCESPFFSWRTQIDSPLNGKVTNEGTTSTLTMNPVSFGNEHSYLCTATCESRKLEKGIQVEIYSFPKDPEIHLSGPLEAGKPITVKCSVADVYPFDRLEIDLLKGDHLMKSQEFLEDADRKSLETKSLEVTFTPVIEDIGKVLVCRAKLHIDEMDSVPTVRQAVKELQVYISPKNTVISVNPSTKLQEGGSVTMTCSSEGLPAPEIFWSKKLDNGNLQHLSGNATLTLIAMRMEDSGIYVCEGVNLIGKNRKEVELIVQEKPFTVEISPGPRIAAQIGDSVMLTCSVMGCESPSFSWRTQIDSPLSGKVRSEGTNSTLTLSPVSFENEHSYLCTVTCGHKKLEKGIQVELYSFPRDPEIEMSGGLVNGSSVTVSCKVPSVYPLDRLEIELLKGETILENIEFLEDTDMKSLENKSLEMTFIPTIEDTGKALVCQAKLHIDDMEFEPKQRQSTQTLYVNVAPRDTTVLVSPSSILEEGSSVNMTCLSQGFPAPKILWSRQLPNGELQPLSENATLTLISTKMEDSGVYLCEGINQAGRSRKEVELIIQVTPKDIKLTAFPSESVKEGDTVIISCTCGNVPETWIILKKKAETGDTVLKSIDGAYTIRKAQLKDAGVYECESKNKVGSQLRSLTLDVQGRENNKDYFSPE
Assay: blue-shift of the quantum dot fluorescence peak (spectra by confocal microscope); VQDs mixed with recombinant human VCAM-1 in tube in 10:1 and 1:1 molar ratios, 5 hours at room temperature; a drop dried on a slide; excitation 405 nm; blue-shift seen at 1:1, not at 10:1
Conditions: both partners purified

B1: VCAM-1 binding peptide functionalized QDs (VQDs) (peptide)
peptide: VHPKQHRGGSKGC([sulfo‑SMCC-amino‑PEG‑coated CdSeTe/ZnS quantum dot])
notes: source: synthetic peptide (Innovagen, Sweden), conjugated to Qdot 705 ITK Amino (PEG) Quantum Dots (Invitrogen) with sulfo-SMCC
  binding result: binds

Reference: PMC3877406, “Characterization of VCAM-1-Binding Peptide-Functionalized Quantum Dots for Molecular Imaging of Inflamed Endothelium” (PLoS ONE, 2013)
